# Experimental data as given in patent US20120207760A1.
# Tests used:
# [1] = biological target: M2 protein of influenza A/Wisconsin/67/05 (H3N2), on inactivated whole virions (Influenza A virus A/Wisconsin/67/2005 (H3N2)); assay: ELISA, positive control antibody on inactivated whole virions
# [2] = biological target: 23 amino acid synthetic M2e peptide of A/Fort Worth/1/50 (influenza A virus A/Fort Worth/1/50 (H1N1)); assay: ELISA on the 23mer M2e peptide (FIG. 14b)
# TCN-032 (8I10) (antibody), sequence (VH): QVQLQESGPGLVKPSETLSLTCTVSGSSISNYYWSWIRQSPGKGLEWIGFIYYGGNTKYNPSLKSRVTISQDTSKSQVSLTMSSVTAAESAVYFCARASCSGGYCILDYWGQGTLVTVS
# TCN-032 (8I10) (antibody), sequence (VL): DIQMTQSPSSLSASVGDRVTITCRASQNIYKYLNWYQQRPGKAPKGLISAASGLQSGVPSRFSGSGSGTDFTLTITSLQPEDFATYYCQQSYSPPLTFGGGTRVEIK
Substance,OD450 [1],EC50 [2]
TCN-032 (8I10) (antibody),3.62 OD450,–
chimeric mouse V-region/human IgG1 kappa 14C2 antibody,–,0.01 µg/mL
